Laboratory results from patent US20160185856A1 (INSERM INSTITUT NATIONAL DE LA SANTE ET DE LA RECHERCHE …, published 2016).

How the values were obtained:
[1] = target: T1, CLDN7 (UniProt O95471 1-211, limits assumed); assay: FACS on parental SW480 cells, which express CLDN7
T1 construct: whole, on cells; It is endogenous in the human SW480 cell line
T1 sequence (looked up): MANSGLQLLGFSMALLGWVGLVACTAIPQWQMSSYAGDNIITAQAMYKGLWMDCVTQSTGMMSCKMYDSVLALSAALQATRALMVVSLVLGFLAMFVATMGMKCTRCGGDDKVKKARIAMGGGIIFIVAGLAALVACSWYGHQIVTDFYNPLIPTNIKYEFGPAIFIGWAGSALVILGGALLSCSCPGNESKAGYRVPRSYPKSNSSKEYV
Description: (§1) A). Cell lysates derived from SW480 or CLDN-transfected SW480 were tested by Western-Blotting. B) FACS histograms of the binding 6F6C3 mAb (10 μg/mL-gray histogram) or control without 6F6C3 (dashed histogram) or irrelevant antibody 35A7 (black histogram) to the different CLDNs.
(§2) After transitory tranfection on SW480 cells of human cDNA clone of CLDN8 (sc320974, Origene technologies, USA) and murine cDNA clone of CLDN1 (IRAVp968A105D, LifeScience), we analysed by FACs cross-reactivity of 6F6C3 mAb.

[2] = target: T2, CLDN8 (human, UniProt P56748 1-225); assay: FACS on SW480 cells transiently transfected with human CLDN8
T2 construct: whole, on cells; also called human CLDN8
T2 sequence (looked up): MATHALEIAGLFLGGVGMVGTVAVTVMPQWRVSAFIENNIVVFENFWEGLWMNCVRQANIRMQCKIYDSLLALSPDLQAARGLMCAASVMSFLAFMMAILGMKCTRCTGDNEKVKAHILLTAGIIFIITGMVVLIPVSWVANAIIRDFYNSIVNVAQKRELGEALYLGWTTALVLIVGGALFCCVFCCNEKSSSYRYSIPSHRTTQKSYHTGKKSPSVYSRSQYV
Description: as §1, §2

[3] = target: T3, murine CLDN1 (murine, UniProt O88551 1-211); assay: FACS on SW480 cells transiently transfected with murine CLDN1
T3 construct: whole, on cells; also called mCLDN1
T3 sequence (looked up): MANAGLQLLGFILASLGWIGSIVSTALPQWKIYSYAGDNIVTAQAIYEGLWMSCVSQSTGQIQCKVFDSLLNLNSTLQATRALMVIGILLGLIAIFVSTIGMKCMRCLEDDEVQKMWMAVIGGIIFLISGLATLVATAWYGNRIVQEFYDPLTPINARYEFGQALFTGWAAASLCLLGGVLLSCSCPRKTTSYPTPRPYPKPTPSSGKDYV
Description: as §1, §2

binding result [1]: no binding (tested: 10 µg/mL)
binding result [2]: no binding (tested: 10 µg/mL)
binding result [3]: no binding (tested: 10 µg/mL)
B1: 6F6C3 mAb (antibody, V domains shown)
VH: QIQLVQSGPELKKPGETVRISCKASGYTFTTSGMQWLQKMPGKGLKWIGWINTHFGEPKYAEDFKGRFAFSLETSASTAYLQISNLKNEDTATYFCAGAGYYGSRYFDVWGAGTTVTVSS
VL: DIVMTQSQKFMSTSVGDRVSITCKASQNVGTAVAWYQQKPGQSPKLLIYSASNRYTGVPDRFTGSGSGTDFTLTISNMQSEDLADYFCQQYSSYPLTFGGGTKLEIK
notes: Murine hybridoma antibody; Used as purified mAb or as hybridoma supernatant; also called mAb6F6C3; murine anti-CLDN1 antibody (6F6C3)
